The assay deals with GST-cLkh1^ΔLA (LAMMER motif-deleted Lkh1 catalytic domain) (S. pombe). As to the kind of experiment: pull-down.

B1: His6-tagged Tup12 (natural protein)
chain: MATSNVSSRVNELLEAVKKEFEDICQKTKTVEAQKDDFEYKAMISAQINEMALMKQTVMDLEMQQSKVKDRYEEEITSLKAQLEARRKEIASGVVPQSSKTKHGRNSVSFGKYGNAGPFNSDNSSKPLILNNGSSGGTPKNLRSPAIDSDGTVLAPIQTSNVDLGSQYYSSPHVRPAVGATMAGSAMRTFPSNLPLGHPPPPSDSANSSVTPIAAPLVVNGKVSGNPPYPAEIIPTSNVPNREEKDWTVTSNVPNKEPPISVQLLHTLEHTSVICYVRFSADGKFLATGCNRAAMVFNVETGKLITLLQEESSKREGDLYVRSVAFSPDGKYLATGVEDQQIRIWDIAQKRVYRLLTGHEQEIYSLDFSKDGKTLVSGSGDRTVCLWDVEAGEQKLILHTDDGVTTVMFSPDGQFIAAGSLDKVIRIWTSSGTLVEQLHGHEESVYSVAFSPDGKYLVSGSLDNTIKLWELQCVSNVAPSMYKEGGICKQTFTGHKDFILSVTVSPDGKWIISGSKDRTIQFWSPDSPHSQLTLQGHNNSVISVAVSPNGHCFATGSGDLRARIWSYEDL
For the molecule B1, the percent of the substrate-binding activity of GST-cLkh1 and GST-cLkh1^K391R worked out at 30%.

B2: His6-tagged Tup11 (natural protein)
chain: MASVEDATKVQEMLDALKAEYNALAHHSFASKARGNDYESSMIQSQIQEIEAFRKTVDDMYEKQKSIRETYEKDINKLKRELEELGVEANTASYRNRGERSELAASNNQVTHIDQEHPSQTKSTSQPPSNHLPAFQQIPPIHQSAYPQNNVAEVLMPPIPPSVEASSGQNFNQGIASQNPAISTSNLPSTTPLYIPPVNYGANQVSQQPNPQLPGVSNYYNPSATSKPAVNVQPPRIPTKATPSAEPSMTASANAGSISQAGPDGEYQGREQIAPVSDTEAARKTTSQSWYVTYNPACKRVFNINLVHTLEHPSVVCCVKFSNNGKYLATGCNQAANVFDVQTGKKLFTLHEESPDPSRDLYVRTIAFSPDGKYLVTGTEDRQIKLWDLSTQKVRYVFSGHEQDIYSLDFSHNGRFIVSGSGDRTARLWDVETGQCILKLEIENGVTAIAISPNDQFIAVGSLDQIIRVWSVSGTLVERLEGHKESVYSIAFSPDSSILLSGSLDKTIKVWELQATRSVGLSAIKPEGICKATYTGHTDFVLSVAVSPDSRWGLSGSKDRSMQFWDLQTGQSYLTCQGHKNSVISVCFSPDGRQFASGSGDLRARIWSIDPASP
Molecule B2 returned a percent of the substrate-binding activity of GST-cLkh1 and GST-cLkh1^K391R of 30%.

Values taken from paper PMC2859543.
